pKd: −log10 of the molar value.
Assays:
[1] = molecular target: FcRn, FCGRT & B2M dimer receptor (Sino Biological Inc.); experiment: SPR, 12.5 nM analyte, (RU at pH 7.4 / RU at pH 6.0) x 100
[2] = molecular target: FcRn, FCGRT & B2M dimer receptor (Sino Biological Inc.); experiment: SPR, 100 nM analyte, (RU at pH 7.4 / RU at pH 6.0) x 100
[3] = molecular target: FcRn, FCGRT & B2M dimer receptor (Sino Biological Inc.); experiment: SPR, FcRn on CM5 chip, 50 nM analyte, RU 2 s before end of pH 6.0 injection
[4] = molecular target: FcRn, FCGRT & B2M dimer receptor (Sino Biological Inc.); experiment: SPR, FcRn on CM5 chip, 12.5 nM analyte, RU 2 s before end of pH 6.0 injection
[5] = molecular target: FcRn, FCGRT & B2M dimer receptor (Sino Biological Inc.); experiment: SPR, FcRn on CM5 chip, 25 nM analyte, RU 10 s after start of dissociation at pH 7.4
[6] = molecular target: FcRn, FCGRT & B2M dimer receptor (Sino Biological Inc.); experiment: SPR, FcRn on CM5 chip, 100 nM analyte, RU 10 s after start of dissociation at pH 7.4
[7] = molecular target: FcRn, FCGRT & B2M dimer receptor (Sino Biological Inc.); experiment: SPR, mean over 100-12.5 nM analyte, (RU at pH 7.4 / RU at pH 6.0) x 100
[8] = molecular target: FcRn, FCGRT & B2M dimer receptor (Sino Biological Inc.); experiment: SPR, FcRn on CM5 chip, 25 nM analyte, RU 2 s before end of pH 6.0 injection
[9] = molecular target: FcRn, FCGRT & B2M dimer receptor (Sino Biological Inc.); experiment: SPR (BIACORE 3000), FcRn on CM5 chip, pH 6.0, 1:1 Langmuir with drifting baseline
[10] = molecular target: FcRn, FCGRT & B2M dimer receptor (Sino Biological Inc.); experiment: SPR, FcRn on CM5 chip, 50 nM analyte, RU 10 s after start of dissociation at pH 7.4
[11] = molecular target: FcRn, FCGRT & B2M dimer receptor (Sino Biological Inc.); experiment: SPR, 50 nM analyte, (RU at pH 7.4 / RU at pH 6.0) x 100
[12] = molecular target: FcRn, FCGRT & B2M dimer receptor (Sino Biological Inc.); experiment: SPR, 25 nM analyte, (RU at pH 7.4 / RU at pH 6.0) x 100
[13] = molecular target: FcRn, FCGRT & B2M dimer receptor (Sino Biological Inc.); experiment: SPR, FcRn on CM5 chip, 12.5 nM analyte, RU 10 s after start of dissociation at pH 7.4
[14] = molecular target: FcRn, FCGRT & B2M dimer receptor (Sino Biological Inc.); experiment: SPR, FcRn on CM5 chip, 100 nM analyte, RU 2 s before end of pH 6.0 injection

Sequence of FcRn, FCGRT & B2M dimer receptor (Sino Biological Inc.) (P55899 24-297, chain 1 of 2): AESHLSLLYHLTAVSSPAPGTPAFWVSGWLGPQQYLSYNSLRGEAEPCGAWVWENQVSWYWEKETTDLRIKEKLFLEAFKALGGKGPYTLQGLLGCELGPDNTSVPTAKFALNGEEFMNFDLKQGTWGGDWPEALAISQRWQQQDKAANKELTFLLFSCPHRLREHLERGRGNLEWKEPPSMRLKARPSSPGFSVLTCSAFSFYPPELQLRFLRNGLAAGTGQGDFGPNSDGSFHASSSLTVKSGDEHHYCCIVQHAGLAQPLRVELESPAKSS
Sequence of FcRn, FCGRT & B2M dimer receptor (Sino Biological Inc.) (P61769 21-119, chain 2 of 2, further chain): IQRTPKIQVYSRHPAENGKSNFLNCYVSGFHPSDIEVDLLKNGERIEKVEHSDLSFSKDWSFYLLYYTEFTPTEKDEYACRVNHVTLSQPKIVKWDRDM
Sequence of Human growth hormone-immunoglobulin Fc fragment conjugate (P01241 27-217): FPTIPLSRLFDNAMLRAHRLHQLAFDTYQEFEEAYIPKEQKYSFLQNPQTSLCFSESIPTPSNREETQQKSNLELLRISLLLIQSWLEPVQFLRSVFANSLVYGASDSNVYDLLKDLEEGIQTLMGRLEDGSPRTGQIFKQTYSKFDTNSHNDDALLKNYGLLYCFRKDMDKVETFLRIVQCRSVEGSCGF

**Q.** What does the source list for “Human growth hormone-immunoglobulin Fc fragment conjugate (from UniProt P01241 27-217)”?
**A.** Binding ratio (%) [1]: 9.8%; Binding ratio (%) [2]: 4%; Binding amount (RU) at pH 6.0 [3]: 153 RU; Binding amount (RU) at pH 6.0 [4]: 82.9 RU; Binding amount (RU) at pH 7.4 [5]: 8.3 RU; Binding amount (RU) at pH 7.4 [6]: 8.2 RU; Average binding ratio (%) [7]: 6.6%; Binding amount (RU) at pH 6.0 [8]: 112 RU; pKd [9]: 7.57; koff [9]: 0.0036 s⁻¹; kon [9]: 120000 M⁻¹ s⁻¹; Binding amount (RU) at pH 7.4 [10]: 7.7 RU; Binding ratio (%) [11]: 5.1%; Binding ratio (%) [12]: 7.4%; Binding amount (RU) at pH 7.4 [13]: 8.1 RU; Binding amount (RU) at pH 6.0 [14]: 206 RU

**Q.** What does the source list for “Interferon-immunoglobulin Fc fragment conjugate (from UniProt P01563 24-188)”?
**A.** Binding ratio (%) [1]: 7%; Binding ratio (%) [2]: 3.2%; Binding amount (RU) at pH 6.0 [3]: 157 RU; Binding amount (RU) at pH 6.0 [4]: 91.3 RU; Binding amount (RU) at pH 7.4 [5]: 6.7 RU; Binding amount (RU) at pH 7.4 [6]: 6.4 RU; Average binding ratio (%) [7]: 5%; Binding amount (RU) at pH 6.0 [8]: 120 RU; pKd [9]: 7.52; koff [9]: 0.0093 s⁻¹; kon [9]: 300000 M⁻¹ s⁻¹; Binding amount (RU) at pH 7.4 [10]: 6.7 RU; Binding ratio (%) [11]: 4.3%; Binding ratio (%) [12]: 5.6%; Binding amount (RU) at pH 7.4 [13]: 6.4 RU; Binding amount (RU) at pH 6.0 [14]: 197 RU

— patent US20160152684A1
